# Results reported in patent US20220372155A1 (LYVGEN BIOPHARMA, published 2022).
# B1: Ly344 (bispecific antibody, human IgG1, kappa)
# heavy: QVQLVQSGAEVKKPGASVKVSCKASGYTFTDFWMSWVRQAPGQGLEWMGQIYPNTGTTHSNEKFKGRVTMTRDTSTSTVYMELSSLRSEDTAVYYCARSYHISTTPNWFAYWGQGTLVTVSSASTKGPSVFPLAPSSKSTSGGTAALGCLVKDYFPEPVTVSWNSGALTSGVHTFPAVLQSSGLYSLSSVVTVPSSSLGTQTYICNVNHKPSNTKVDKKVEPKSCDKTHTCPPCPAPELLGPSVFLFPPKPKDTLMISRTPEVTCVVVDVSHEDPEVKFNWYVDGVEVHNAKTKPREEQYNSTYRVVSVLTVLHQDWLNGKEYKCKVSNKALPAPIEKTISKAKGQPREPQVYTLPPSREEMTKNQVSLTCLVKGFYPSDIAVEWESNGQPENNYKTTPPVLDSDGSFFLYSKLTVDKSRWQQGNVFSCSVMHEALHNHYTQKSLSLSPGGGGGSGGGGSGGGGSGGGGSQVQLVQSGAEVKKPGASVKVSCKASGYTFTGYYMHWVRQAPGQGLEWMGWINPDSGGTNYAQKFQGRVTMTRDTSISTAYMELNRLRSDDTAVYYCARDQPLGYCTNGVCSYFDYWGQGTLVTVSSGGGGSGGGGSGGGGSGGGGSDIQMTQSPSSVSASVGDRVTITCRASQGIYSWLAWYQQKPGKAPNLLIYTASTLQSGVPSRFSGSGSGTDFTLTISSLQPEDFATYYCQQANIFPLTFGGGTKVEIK
# light: DIQMTQSPSSLSASVGDRVTITCKASQNVYKKLEWYQQKPGKVPKVLIYHTNILQTGVPSRFSGSGSGTDYTLTISSLQPEDVATYYCYQWNSGPTFGGGTKVEIKRTVAAPSVFIFPPSDEQLKSGTASVVCLLNNFYPREAKVQWKVDNALQSGNSQESVTEQDSKDSTYSLSSTLTLSKADYEKHKVYACEVTHQGLSSPVTKSFNRGEC
# notes: Ly076 HC (IgG1 mutated Fc)-Ly253 scFv VH-VL + Ly076 LC
# B2: Ly343 (bispecific antibody, human IgG1, kappa)
# heavy: QVQLVQSGAEVKKPGASVKVSCKASGYTFTDFWMSWVRQAPGQGLEWMGQIYPNTGTTHSNEKFKGRVTMTRDTSTSTVYMELSSLRSEDTAVYYCARSYHISTTPNWFAYWGQGTLVTVSSASTKGPSVFPLAPSSKSTSGGTAALGCLVKDYFPEPVTVSWNSGALTSGVHTFPAVLQSSGLYSLSSVVTVPSSSLGTQTYICNVNHKPSNTKVDKKVEPKSCDKTHTCPPCPAPELLGPSVFLFPPKPKDTLMISRTPEVTCVVVDVSHEDPEVKFNWYVDGVEVHNAKTKPREEQYNSTYRVVSVLTVLHQDWLNGKEYKCKVSNKALPAPIEKTISKAKGQPREPQVYTLPPSREEMTKNQVSLTCLVKGFYPSDIAVEWESNGQPENNYKTTPPVLDSDGSFFLYSKLTVDKSRWQQGNVFSCSVMHEALHNHYTQKSLSLSPG
# light: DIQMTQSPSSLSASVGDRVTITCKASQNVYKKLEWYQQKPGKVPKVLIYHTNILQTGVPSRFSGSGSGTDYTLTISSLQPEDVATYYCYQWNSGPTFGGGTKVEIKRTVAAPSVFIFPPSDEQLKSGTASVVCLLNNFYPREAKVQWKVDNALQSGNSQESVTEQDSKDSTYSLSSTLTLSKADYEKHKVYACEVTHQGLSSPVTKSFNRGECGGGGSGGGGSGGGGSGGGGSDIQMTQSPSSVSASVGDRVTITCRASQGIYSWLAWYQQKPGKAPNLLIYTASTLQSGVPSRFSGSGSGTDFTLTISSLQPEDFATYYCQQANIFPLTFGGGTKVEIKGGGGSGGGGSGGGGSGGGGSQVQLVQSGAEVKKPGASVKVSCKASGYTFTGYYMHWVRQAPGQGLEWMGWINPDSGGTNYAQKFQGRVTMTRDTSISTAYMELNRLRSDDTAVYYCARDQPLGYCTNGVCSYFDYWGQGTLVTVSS
# notes: Ly076 HC (IgG1 mutated Fc) + Ly076 LC-Ly253 scFv VL-VH
# B3: Ly345 (bispecific antibody, human IgG1, kappa)
# heavy: B2 heavy
# light: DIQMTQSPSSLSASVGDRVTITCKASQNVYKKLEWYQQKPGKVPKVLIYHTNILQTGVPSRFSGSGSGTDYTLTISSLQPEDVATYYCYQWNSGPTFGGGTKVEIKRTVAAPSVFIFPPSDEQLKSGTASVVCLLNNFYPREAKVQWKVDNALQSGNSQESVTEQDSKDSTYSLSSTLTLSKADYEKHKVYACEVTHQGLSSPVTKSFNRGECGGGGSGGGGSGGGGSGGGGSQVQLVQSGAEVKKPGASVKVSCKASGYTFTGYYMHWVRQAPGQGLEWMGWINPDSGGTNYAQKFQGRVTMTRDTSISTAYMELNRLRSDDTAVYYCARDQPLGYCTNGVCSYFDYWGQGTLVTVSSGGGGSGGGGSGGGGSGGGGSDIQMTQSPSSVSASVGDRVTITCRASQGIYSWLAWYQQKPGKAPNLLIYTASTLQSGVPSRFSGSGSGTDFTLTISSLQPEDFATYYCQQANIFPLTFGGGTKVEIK
# notes: Ly076 HC (IgG1 mutated Fc) + Ly076 LC-Ly253 scFv VH-VL
# Target: T1, human CD40 expressed on CHO cells (human, UniProt P25942 21-277)
# T1 construct: whole, on cells; also used for the reporter cells over-expressing human CD40; also called cellular CD40; CHO-CD40 cells
# Experiment: FACS, CHO cells
# T1 sequence (P25942 21-277): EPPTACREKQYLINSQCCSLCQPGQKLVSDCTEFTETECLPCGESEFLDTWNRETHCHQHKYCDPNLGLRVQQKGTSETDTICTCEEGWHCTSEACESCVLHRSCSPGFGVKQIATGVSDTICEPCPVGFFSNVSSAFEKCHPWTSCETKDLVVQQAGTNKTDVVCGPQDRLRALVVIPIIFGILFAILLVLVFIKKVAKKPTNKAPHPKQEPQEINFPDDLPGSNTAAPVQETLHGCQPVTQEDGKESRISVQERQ
row,binding result,Binder
1,binds,B1
2,binds,B2
3,binds,B3

# Target: T2, Ly090 (human CD40 ECD protein with His tag) (human, UniProt P25942 21-193)
# T2 construct: extracellular domain; also called human CD40 ECD protein (His tag); recombinant human CD40; not shown: His tag
# Experiment: bridging ELISA, coated CD40 ECD-His, soluble PD-L1 ECD-mFc
# Description: Exemplary anti-PD-L1/CD40 bi-specific antibodies were analyzed by ELISA for their simultaneous binding to recombinant human PD-L1 and human CD40. Briefly, Ly090 (human CD40 ECD protein with His tag) was diluted and coated onto an ELISA plate with a volume of 100 μL/well by incubation at 4° C. overnight. The next day, the plate was blocked by PBST-BSA buffer, then serially diluted samples of anti-PD-L1/CD40 bi-specific antibodies were pipetted into appropriate wells at 50 μL/well, and the plate was incubated for 1 h followed by Washing. Human PD-L1 ECD protein (mouse IgG2a Fc tag) was added into the plate at 50 μL/well. After 1-hour incubation at room temperature, HRP-conjugated anti-Mouse IgG, Fc G2a antibody was added into the plate at 100 μL/well. The plate was incubated for 1 hour at room temperature followed by washing. TMB substrate solution was added at 100 μL/well and the color development was stopped by adding 100 uL/well Stop Solution (2N H₂SO₄). Absorbance at 450 nm and 620 nm was read by Tecan F200 Pro plate reader. GraphPad 7.0, “[Agonist] vs. response—Variable slope (four parameters)” was used to plot the binding data and calculate binding EC50 values.
# T2 sequence (P25942 21-193): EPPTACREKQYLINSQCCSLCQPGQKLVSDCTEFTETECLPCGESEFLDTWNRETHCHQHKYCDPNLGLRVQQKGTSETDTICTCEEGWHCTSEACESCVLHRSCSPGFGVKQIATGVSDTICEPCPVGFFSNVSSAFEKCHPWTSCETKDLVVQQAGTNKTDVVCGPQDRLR
row,binding result,Binder
1,binds,B1
2,binds,B2
3,binds,B3
